Experimental data taken from patent US20260098096A1.

Target: Human CCR8 (human) (UniProt P51685)
Experiment: cell-based or functional assay

Sequence of Human CCR8 (human) (P51685 whole entry): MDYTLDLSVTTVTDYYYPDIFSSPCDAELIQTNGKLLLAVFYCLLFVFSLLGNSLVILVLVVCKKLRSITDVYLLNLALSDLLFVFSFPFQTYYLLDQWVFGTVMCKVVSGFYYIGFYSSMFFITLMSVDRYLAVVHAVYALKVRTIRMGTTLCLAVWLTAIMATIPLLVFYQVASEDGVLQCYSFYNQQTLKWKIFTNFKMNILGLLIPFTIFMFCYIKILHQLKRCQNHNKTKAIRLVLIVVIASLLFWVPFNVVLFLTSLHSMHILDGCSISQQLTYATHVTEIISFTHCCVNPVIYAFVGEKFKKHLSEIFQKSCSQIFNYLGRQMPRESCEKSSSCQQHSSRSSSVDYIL

EC90 of chemotaxis of hCCR8 L1.2 cells: 5.84 nM
Substance: human CCL1 (from UniProt P22362 24-96) (ligand)
